Test results as given in the RNAGym collection of RNA variant scans (doi:10.1073/pnas.2313332121).

B1: TPR t1 (parent)
chain: GACCAAUCUGCCCUCAGAGCUCGAGAACAUCUUCGGAUGCAGAGGAGGCAGGCUUCGGUGGCGCGAUAGCGCCAACGUCCUCAACCUCCAAUGCAUCCCACCACAUGAUGAUGCCUGAAGAGCCUUGGUUUUUUG

Variants of: B1
Test: polymerase ribozyme fitness, log enrichment relative to wild type (log ratio); higher = more active; in vitro selection for triplet polymerase activity
Procedure, shortened: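 Libraries of mutants in each subunit of a heterodimeric triplet polymerase ribozyme were generated by PCR and transcribed. In triplicate, each went through one in vitro selection round: annealing with biotinylated primer, partner subunit and triplets; frozen incubation at −7 °C; gel excision of extended constructs; streptavidin-bead capture; RT-PCR. Fitness, taken from Illumina sequencing of input and output libraries, is the logarithm of a genotype's enrichment over wild-type enrichment, averaged across replicates with inverse-variance weights. The logarithm is base 2, and genotypes needed ≥10 input reads and ≥1 read per output to be kept.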

Variant | polymerase ribozyme fitness (log ratio)
C56U A90U U92A | -1.45
C56U C72U C79U C101A | -1.28
C56U C102A U129G | -3.35
C56U G69A G113A | -5.38
G57A C94G G113A | -3.76
G57A G58A U81A U106C | -2.54
C56U A90G C97U | -0.119
C56U G110A | -0.719
C56U C73U C88G | -1.95
C56U G65U C114U | -6.33
C56U C89U U116C G127A G135U | -3.61
G57A G58A | -0.357
C56U G61U C104U U112G G117U C124U | -5.56
G57A G63U U78C A95C C115A | -2.54
C56U C72U U116C G117U G120U | -3.95
G57A G93C U130G | -3.23
G57A G61A | -0.154
G57A C88U U112G | -2.79
C56U U78C U106A G120A | 0.24
G57A A90C C104A G113C G117C | -6.59
C56U U78A | -0.32

Variant | polymerase ribozyme fitness (log ratio)
C56U U87C | 0.555
C56U C101G A118C C124G | -2.41
C56U U78C A111C G113U | -4.24
C56U U129G | -0.409
C56U U96A | -1.14
C56U U96G | -0.658
C56U C114G U131A | -2.06
C56U A95C C98U | -1.83
G57A U116G | -3.51
C56U C115A | 0.248
C56U G122U | -0.129
C56U G63C C94U | -5.48
C56U C86U C89U U116G | -2.41
C56U C94A | -0.478
C56U C72A C89A | -2.41
C56U G57U A90C G110U | -3.95
C56U G113U | -2.72
C56U G113C | -1.97
C56U A83C | 1.56
G57A C82A | -0.596
C56U C73U U109A | -4.36

Variant | polymerase ribozyme fitness (log ratio)
C56U G120U C124A | 1.41
G57A G71U C124A G135A | 0.736
C56U G61C C97U A103U C123G | -7.29
G57A A103C G120C C124A | -4.81
C56U C79A C99U C102A G120A G127U | -5.84
C56U G69U U112G A119U | -3.07
C56U G60A C101U | -5.48
C56U U126A | -1.39
C56U U126G | -1.91
C56U C123A | 0.593
C56U C123G | 1.1
C56U C123U | 1.04
C56U G69A U78G A83C | -4.4
C56U C88A | -0.497
G57C A83C A111G G122A G127A | -3.51
C56U C72A C88U | -1.31
G57A G60U C88U C94U | -1.24
C56U G60A A68C C70U | -6.82
G57A G113C U133A | -3.86
C56U G69U | -1.78
G57A C62U | -0.892

Variant | polymerase ribozyme fitness (log ratio)
C56U C64A | -7.74
C56U G117C | -3.64
C56U C72A G120A | -0.183
G57A G69U C97A U132C | -3.61
G57A A66U C115G | -4.64
C56U C80G | -5.25
C56U G113U C123G | -2.01
C56U C64U A74G | -3.32
C56U C85A C88A | -2.83
G57C C72U U129A | -1.29
C56U U87A C123G | 1.81
G57A G71U C89U | -1.34
C56U U106G U112G A118C U133G | -0.872
G57A C97U | -1.83
G57C C64A C124U | -6.08
C56U U112C | 0.364
C56U U112A | 1.66
C56U G60A | -3.37
C56U G60U | -3.21
G57A U81C G93C G120A | -1.39
